Laboratory results published in paper PMC4243239 (Nature communications, 2014).

T1: B. subtilis FtsZ, untagged (B. subtilis, UniProt P17865 1-382)
T1 sequence: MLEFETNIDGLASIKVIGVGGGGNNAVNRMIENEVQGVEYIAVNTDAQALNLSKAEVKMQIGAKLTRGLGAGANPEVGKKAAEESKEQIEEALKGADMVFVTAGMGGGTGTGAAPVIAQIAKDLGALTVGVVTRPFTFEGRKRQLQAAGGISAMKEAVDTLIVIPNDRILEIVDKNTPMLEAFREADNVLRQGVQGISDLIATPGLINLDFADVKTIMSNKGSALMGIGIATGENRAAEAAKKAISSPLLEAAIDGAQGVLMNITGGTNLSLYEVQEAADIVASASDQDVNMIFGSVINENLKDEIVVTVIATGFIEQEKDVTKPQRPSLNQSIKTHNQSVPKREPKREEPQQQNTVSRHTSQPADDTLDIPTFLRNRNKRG

T2: B. subtilis FtsZ with a 15-residue recombinant N-terminal T7 epitope tag (B. subtilis, UniProt P17865 1-382)
T2 sequence (looked up): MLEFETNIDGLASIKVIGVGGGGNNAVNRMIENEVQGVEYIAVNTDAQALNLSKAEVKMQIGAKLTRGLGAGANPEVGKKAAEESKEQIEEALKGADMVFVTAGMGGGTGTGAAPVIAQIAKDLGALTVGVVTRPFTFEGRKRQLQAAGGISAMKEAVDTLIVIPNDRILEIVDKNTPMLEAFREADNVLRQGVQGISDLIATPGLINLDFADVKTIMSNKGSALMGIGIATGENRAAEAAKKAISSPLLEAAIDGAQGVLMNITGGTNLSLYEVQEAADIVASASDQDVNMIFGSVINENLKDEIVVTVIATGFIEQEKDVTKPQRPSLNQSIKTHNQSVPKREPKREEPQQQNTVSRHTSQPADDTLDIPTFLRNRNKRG


How the values were obtained:
SEC-MALS = biological target: the molecule itself; test: SEC-MALS
[1] = biological target: T1, B. subtilis FtsZ, untagged; test: SPR
crystal structure = biological target: the molecule itself; test: crystal structure
[2] = biological target: T2, B. subtilis FtsZ with a 15-residue …; test: cross-linking

Kd [1]	stoichiometry N [2]	Binder	binding result (SEC-MALS)	binding result (crystal structure)
13.7 ± 1.5 µM		BsEzrA_(22–217), spectrin repeats one and two of B. subtilis EzrA (domain or fragment, UniProt O34894 22-217, looked up) RKKIYAEIDRLESWKIEILNRSIVEEMSKIKHLKMTGQTEEFFEKWREEWDEIVTAHMPKVEELLYDAEENADKYRFKKANQVLVHIDDLLTAAESSIEKILREISDLVTSEEKSREEIEQVRERYSKSRKNLLAYSHLYGELYDSLEKDLDEIWSGIKQFEEETEGGNYITARKVLLEQDRNLERLQSYIDDVPK	binds	
	1 EzrA:FtsZ	B. subtilis EzrA cytoplasmic domain lacking the N-terminal 21 residue trans-membrane helix, BsEzrA_(22-562) (domain or fragment, UniProt O34894 22-562, looked up) RKKIYAEIDRLESWKIEILNRSIVEEMSKIKHLKMTGQTEEFFEKWREEWDEIVTAHMPKVEELLYDAEENADKYRFKKANQVLVHIDDLLTAAESSIEKILREISDLVTSEEKSREEIEQVRERYSKSRKNLLAYSHLYGELYDSLEKDLDEIWSGIKQFEEETEGGNYITARKVLLEQDRNLERLQSYIDDVPKLLADCKQTVPGQIAKLKDGYGEMKEKGYKLEHIQLDKELENLSNQLKRAEHVLMTELDIDEASAILQLIDENIQSVYQQLEGEVEAGQSVLSKMPELIIAYDKLKEEKEHTKAETELVKESYRLTAGELGKQQAFEKRLDEIGKLLSSVKDKLDAEHVAYSLLVEEVASIEKQIEEVKKEHAEYRENLQALRKEELQARETLSNLKKTISETARLLKTSNIPGIPSHIQEMLENAHHHIQETVNQLNELPLNMEEAGAHLKQAEDIVNRASRESEELVEQVILIEKIIQFGNRFRSQNHILSEQLKEAERRFYAFDYDDSYEIAAAAVEKAAPGAVEKIKADISA		binds
